Experimental findings from PMC10583550 are described below.

The target in the assay is NtFD1-Flag (Nicotiana tabacum). Kind of assay: native gel or EMSA; extract of N. benthamiana leaves expressing NtFD1-Flag loaded directly onto a native PAGE gel, then western blotting; native protein marker GAPDH used for size.

As to NtFD1-Flag (natural protein), the stoichiometry N was 4.
